B1: AZIDE-ATSP-7041 (A14hR) (peptide)
chain: KXLTFXEYWAQXXSAX
modifications: homo-Arg (hR) at 14; N-terminal acetyl; Lys(N3) and beta-Ala before residue 1; R8 at 4 and S5 at 11 (olefin staple); Cba at 10; C-terminal amide
B2: AZIDE-ATSP-7041 (E5hR) (peptide)
chain: KXLTFXXYWAQXXSAA
modifications: homo-Arg (hR) at 5; N-terminal acetyl; Lys(N3) and beta-Ala before residue 1; R8 at 4 and S5 at 11 (olefin staple); Cba at 10; C-terminal amide
B3: AZIDE-ATSP-7041 (T2hR) (peptide)
chain: KXLXFXEYWAQXXSAA
modifications: homo-Arg (hR) at 2; N-terminal acetyl; Lys(N3) and beta-Ala before residue 1; R8 at 4 and S5 at 11 (olefin staple); Cba at 10; C-terminal amide
B4: AZIDE-ATSP-7041 (A13hR) (peptide)
chain: KXLTFXEYWAQXXSXA
modifications: homo-Arg (hR) at 13; N-terminal acetyl; Lys(N3) and beta-Ala before residue 1; R8 at 4 and S5 at 11 (olefin staple); Cba at 10; C-terminal amide
B5: AZIDE-ATSP-7041 (L1hR) (peptide)
chain: KXXTFXEYWAQXXSAA
modifications: homo-Arg (hR) at 1; N-terminal acetyl; Lys(N3) and beta-Ala before residue 1; R8 at 4 and S5 at 11 (olefin staple); Cba at 10; C-terminal amide
B6: AZIDE-ATSP-7041 (S12hR) (peptide)
chain: KXLTFXEYWAQXXXAA
modifications: homo-Arg (hR) at 12; N-terminal acetyl; Lys(N3) and beta-Ala before residue 1; R8 at 4 and S5 at 11 (olefin staple); Cba at 10; C-terminal amide
B7: AZIDE-ATSP-7041 (Q9hR) (peptide)
chain: KXLTFXEYWAXXXSAA
modifications: homo-Arg (hR) at 9; N-terminal acetyl; Lys(N3) and beta-Ala before residue 1; R8 at 4 and S5 at 11 (olefin staple); Cba at 10; C-terminal amide

Positions of bridges follow the written chain, without caps; N, C: chain ends. Non-standard residues stand in square brackets, D forms with d. Primed or numbered codes have the meaning given here. Trp(6-Cl) = N[C@@H](Cc1c[nH]c2cc(Cl)ccc12)C(=O)O; Lys(N3) = [N-]=[N+]=NCCCC[C@H](N)C(=O)O; R8 = C=CCCCCCC[C@@](C)(N)C(=O)O; S5 = C=CCCC[C@](C)(N)C(=O)O; Cba′ = not defined here; Aib = CC(C)(N)C(=O)O; βAla = NCCC(=O)O

T1 sequence (chain, as listed by the source): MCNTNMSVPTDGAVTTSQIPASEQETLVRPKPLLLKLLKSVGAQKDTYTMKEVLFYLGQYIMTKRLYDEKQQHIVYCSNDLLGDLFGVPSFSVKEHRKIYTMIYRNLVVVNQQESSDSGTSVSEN

One assay has as its target T1, human Mdm2 1-125 (human).
T1 construct: Mdm2, human, residues 1-125; the stretch after the TEV site ENLYFQG of the fusion protein; source: E. coli BL21 (DE3) Rosetta T1R, purified (Ni-NTA, gel filtration)
As to the kind of experiment: fluorescence polarisation; competitive fluorescence anisotropy: unlabelled peptide titrated against 250 nM Mdm2 (1-125) with 50 nM FAM-labelled 12/1 peptide (FAM-…-NH2); PBS pH 7.4, 0.001% Tween-20; apparent Kd, geometric means. The following applies: both partners purified. On the technique in general: Polarisation of emitted light reports the rotation of a fluorescent probe.
Take Ac-[Lys(N3)][βAla]LEF[R8]EYWAQ[Cba′][S5]SAA-NH2 (staple 6-13; reading uncertain) [AZIDE-ATSP-7041 (T2E)]: the Kd is 42.4 nM.

With Ac-[Lys(N3)][βAla]LTF[R8]EYWAQ[Cba′][S5]S[Aib]A-NH2 (staple 6-13; reading uncertain) [AZIDE-ATSP-7041 (A13 TO AIB)], the Kd is 15.2 nM.

For the molecule Ac-[Lys(N3)][βAla]LTF[R8]EYWEQ[Cba′][S5]SAA-NH2 (staple 6-13; reading uncertain) [AZIDE-ATSP-7041 (A8E)], the Kd was found to be 3.2 nM.

On to Ac-[Lys(N3)][βAla]LHF[R8]EYWAQ[Cba′][S5]SAA-NH2 (staple 6-13; reading uncertain) [AZIDE-ATSP-7041 (T2H)], for which the Kd was determined as 64.2 nM.

On to Ac-[Lys(N3)][βAla]LTF[R8]HYWAQ[Cba′][S5]SAA-NH2 (staple 6-13; reading uncertain) [AZIDE-ATSP-7041 (E5H)], for which the Kd stood at 21.1 nM.

Take Ac-[Lys(N3)][βAla]LTF[R8]EYWAQE[S5]SAA-NH2 (staple 6-13) [AZIDE-ATSP-7041 (CBA10E)]: the Kd worked out at 312 nM.

Regarding Ac-[Lys(N3)][βAla]LTF[R8]EYWAE[Cba′][S5]SAA-NH2 (staple 6-13; reading uncertain) [AZIDE-ATSP-7041 (Q9E)], the Kd came to 34.6 nM.

Consider Ac-[Lys(N3)][βAla]LTF[R8]EYWAQ[Cba′][S5]HAA-NH2 (staple 6-13; reading uncertain) [AZIDE-ATSP-7041 (S12H)], for which the Kd came out at 4.5 nM.

In the case of Ac-[Lys(N3)][βAla]LTF[R8]EYWAH[Cba′][S5]SAA-NH2 (staple 6-13; reading uncertain) [AZIDE-ATSP-7041 (Q9H)], the Kd turned out to be 9.6 nM.

Ac-[Lys(N3)][βAla]HTF[R8]EYWAQ[Cba′][S5]SAA-NH2 (staple 6-13; reading uncertain) [AZIDE-ATSP-7041 (L1H)]: the Kd is 0.7 nM.

With Ac-[Lys(N3)][βAla]LTF[R8]EYEAQ[Cba′][S5]SAA-NH2 (staple 6-13; reading uncertain) [AZIDE-ATSP-7041 (W7E)], the Kd was greater than 101000 nM.

For Ac-[Lys(N3)][βAla]LTE[R8]EYWAQ[Cba′][S5]SAA-NH2 (staple 6-13; reading uncertain) [AZIDE-ATSP-7041 (F3E)], the Kd amounted to 11200 nM.

Take Ac-[Lys(N3)][βAla]LTF[R8]EEWAQ[Cba′][S5]SAA-NH2 (staple 6-13; reading uncertain) [AZIDE-ATSP-7041 (Y6E)]: the Kd is 5.1 nM.

In the next assay the target is T1, human Mdm2 1-125. The assay is described as above. The following applies: both partners purified. This is another data set of the same source.
Turning to B1, the Kd was 8.6 nM.

For Ac-[Lys(N3)][βAla]LTF[R8]EYWAQ[Cba′][S5]RAA-NH2 (staple 6-13; reading uncertain) [AZIDE-ATSP-7041 (S12R)], the Kd turned out to be 78.7 nM.

For Ac-[Lys(N3)][βAla]LTF[R8]RYWAQ[Cba′][S5]SAA-NH2 (staple 6-13; reading uncertain) [AZIDE-ATSP-7041 (E5R)], the Kd stood at 33 nM.

For the molecule B2, the Kd was 35.5 nM.

As to Ac-[Lys(N3)][βAla]LRF[R8]EYWAQ[Cba′][S5]SAA-NH2 (staple 6-13; reading uncertain) [AZIDE-ATSP-7041 (T2R)], the Kd came out at 30.6 nM.

Take B3: the Kd is 2.8 nM.

For the molecule Ac-[Lys(N3)][βAla]RTF[R8]EYWAQ[Cba′][S5]SAA-NH2 (staple 6-13; reading uncertain) [AZIDE-ATSP-7041 (L1R)], the Kd was found to be 62.9 nM.

Regarding B4, the Kd was 42.5 nM.

As to B5, the Kd was 8.6 nM.

Ac-[Lys(N3)][βAla]LTF[R8]EYWRQ[Cba′][S5]SAA-NH2 (staple 6-13; reading uncertain) [AZIDE-ATSP-7041 (A8R)]: the Kd stood at 69.4 nM.

For B6, the Kd was found to be 5 nM.

In the case of B7, the Kd is 28.5 nM.

Turning to Ac-[Lys(N3)][βAla]LTF[R8]EYWAR[Cba′][S5]SAA-NH2 (staple 6-13; reading uncertain) [AZIDE-ATSP-7041 (Q9R)], the Kd was 45.9 nM.

The target of the next assay is T1, human Mdm2 1-125. The assay is described as above. The note with it: both partners purified. The source holds these as a separate data set.
As to Ac-[Lys(N3)][βAla]LTA[R8]EYWAQ[Cba′][S5]SAA-NH2 (staple 6-13; reading uncertain) [AZIDE-ATSP-7041 (F3A)], the Kd was 13200 nM.

With Ac-[Lys(N3)][βAla]LTF[R8]EYWAK[Cba′][S5]SAA-NH2 (staple 6-13; reading uncertain) [AZIDE-ATSP-7041 (Q9K)], the Kd turned out to be 8.2 nM.

On to Ac-[Lys(N3)][βAla]KTF[R8]EYWAQ[Cba′][S5]SAA-NH2 (staple 6-13; reading uncertain) [AZIDE-ATSP-7041 (L1K)], for which the Kd stood at 3.8 nM.

Turning to Ac-[Lys(N3)][βAla]LKF[R8]EYWAQ[Cba′][S5]SAA-NH2 (staple 6-13; reading uncertain) [AZIDE-ATSP-7041 (T2K)], the Kd amounted to 5.4 nM.

For Ac-[Lys(N3)][βAla]LTF[R8]EYWAQ[Cba′][S5]KAA-NH2 (staple 6-13; reading uncertain) [AZIDE-ATSP-7041 (S12K)], the Kd is 39.7 nM.

Turning to Ac-[Lys(N3)][βAla]LTF[R8]KYWAQ[Cba′][S5]SAA-NH2 (staple 6-13; reading uncertain) [AZIDE-ATSP-7041 (E5K)], the Kd was found to be 115 nM.

As for Ac-[Lys(N3)][βAla]LAF[R8]EYWAQ[Cba′][S5]SAA-NH2 (staple 6-13; reading uncertain) [AZIDE-ATSP-7041 (T2A)], the Kd was found to be 80.5 nM.

For Ac-[Lys(N3)][βAla]ATF[R8]EYWAQ[Cba′][S5]SAA-NH2 (staple 6-13; reading uncertain) [AZIDE-ATSP-7041 (L1A)], the Kd amounted to 10.7 nM.

As for Ac-[Lys(N3)][βAla]LTF[R8]EYWKQ[Cba′][S5]SAA-NH2 (staple 6-13; reading uncertain) [AZIDE-ATSP-7041 (A8K)], the Kd amounted to 11.1 nM.

In the next assay the target is T1, human Mdm2 1-125. The description is as above. The note with it: both partners purified. This is another data set of the same source.
As to Ac-[Lys(N3)][βAla]VTF[R8]VYWVQ[Cba′][S5]SAA-NH2 (staple 6-13; reading uncertain) [AZIDE-ATSP-7041 (L1V, E5V, A8V)], the Kd is 122 nM.

Regarding Ac-[Lys(N3)][βAla][dL]TF[R8]AY[Trp(6-Cl)]AA[Cba′][S5]S[dA]A-NH2 (staple 6-13; reading uncertain) [AZIDE-ATSP-7041 (L1 TO D-LEU, E5A, Q9A, W7 TO 6-CLTRP, A13 TO D-ALA)], the Kd was found to be 16.9 nM.

(Values after publication PMC10786919, “Design-rules for stapled peptides with in vivo activity and their application to Mdm2/X antagonists” (Nature Communications, 2024).)
